Data taken from the supplement of paper PMC6757056.
± gives the standard deviation of the averaged measurements.

B1: library; a variant is named by its letters at N, in order (parent)
chain: GCUGUCACCGGUGCUUGGUACGUUAUAUUCAGCCGGUCUGAUGAGUCUNNNNNNAGACGAAACAGC

Experiments:
(6R,S)-folinic acid [1] = variants of: B1; assay: FACS-Seq fitted mean relative fluorescence mCherry/BFP without ligand (log10 relative fluorescence); HEK293T overexpressing SLC46A1; higher = higher reporter protein expression; conditions: without (6R,S)-folinic acid; ligand present: no
How it was run: (§1)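 After lentiviral transduction, HEK293T library cells bearing an mCherry ribozyme-switch reporter and an EF1α-BFP marker were enriched. They were then held for 48 h with or without ligand and sorted by mCherry/BFP into 6 bins, and each bin's genomic DNA was PCR-amplified, barcoded and MiSeq-sequenced. Fluorescence is expressed as a normalized fitted mean: the normal mean of log10(mCherry/BFP) bin counts, scaled to five spiked-in control ribozymes.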

(6R,S)-folinic acid [2] = variants of: B1; assay: normalized RNA/DNA level without ligand (relative to sTRSVctl = 100) (log10 (% of sTRSVctl)); HEK293T overexpressing SLC46A1; higher = less ribozyme self-cleavage, higher mRNA level; conditions: without (6R,S)-folinic acid; ligand present: no
How it was run: (§2)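 Ribozyme switch library plasmids linked to reporters were introduced into HEK293T cells at 4 µg per 6-well well, with ligand, if any, added 1 h before. Total RNA was extracted with EDTA 72 h later, reverse-transcribed, amplified, barcoded and sequenced. RNA level was computed from RNA over DNA reads relative to a spiked-in non-cleaving sequence or the top sequences, then scaled and log-transformed. The top set was 25 sequences, values were ×100 and log10, and the cutoff was ≥100 DNA reads.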

(6R,S)-folinic acid [3] = variants of: B1; assay: FACS-Seq fitted mean relative fluorescence mCherry/BFP with ligand (log10 relative fluorescence); HEK293T overexpressing SLC46A1; ligand concentration (+) FACS-Seq: 6 mM; higher = higher reporter protein expression; conditions: with (6R,S)-folinic acid; ligand present: yes
How it was run: as §1

(6R,S)-folinic acid [4] = variants of: B1; assay: normalized RNA/DNA level with ligand (relative to sTRSVctl = 100) (log10 (% of sTRSVctl)); HEK293T overexpressing SLC46A1; ligand concentration (+) RNA-Seq: 6 mM; higher = less ribozyme self-cleavage, higher mRNA level; conditions: with (6R,S)-folinic acid; ligand present: yes
How it was run: as §2

Row | Variant | FACS-Seq fitted mean (log10) ((6R,S)-folinic acid [1]) | normalized RNA/DNA level without ligand (log10) ((6R,S)-folinic acid [2]) | FACS-Seq fitted mean (log10) ((6R,S)-folinic acid [3]) | normalized RNA/DNA level with ligand (log10) ((6R,S)-folinic acid [4])
1 | GUAUCA | 0.376 ± 0.03 | 2.045 ± 0.01 | 0.586 ± 0.01 | 2.04 ± 0.03
2 | CUAGGC | 0.0076 ± 0.12 | 2.005 ± 0.0013 | 0.186 ± 0.24 | 2 ± 0.028
3 | CUAGGU | 0.652 ± 0.16 | 2.024 ± 0.0033 | 0.694 ± 0.027 | 2.05 ± 0.028
4 | UGUUUU | 0.296 ± 0.18 | 1.985 ± 0.0066 | 0.546 ± 0.13 | 2.03 ± 0.023
5 | UGUUUG | 0.222 ± 0.04 | 1.794 ± 0.0043 | 0.62 ± 0.05 | 2.01 ± 0.025
6 | GUAAAA | 0.0987 ± 0.013 | 1.998 ± 0.0036 | -0.0576 ± 0.026 | 1.96 ± 0.046
7 | GUAAAU | 0.332 ± 0.13 | 1.971 ± 0.0055 | 0.464 ± 0.033 | 2.003 ± 0.0095
8 | GUAAAC | 0.139 ± 0.033 | 1.965 ± 0.0075 | 0.507 ± 0.47 | 2.04 ± 0.0061
9 | UUAAAC | 0.248 ± 0.093 | 1.984 ± 0.0098 | 0.271 ± 0.092 | 1.99 ± 0.031
10 | UUAAAA | 0.578 ± 0.062 | 1.9319 ± 0.0016 | 0.669 ± 0.26 | 1.966 ± 0.017
11 | UUAAAG | 0.413 ± 0.085 | 1.822 ± 0.008 | 0.519 ± 0.17 | 1.94 ± 0.042
12 | UUAUGA | 0.0124 ± 0.043 | 1.9284 ± 0.0007 | -0.0229 ± 0.25 | 2.01 ± 0.027
13 | UUAUGU | 0.389 ± 0.12 | 1.919 ± 0.0091 | 0.413 ± 0.13 | 1.987 ± 0.019
14 | GUAUAG | 0.256 ± 0.031 | 1.94 ± 0.0061 | 0.546 ± 0.096 | 2.01 ± 0.048
15 | AUAUGA | 0.209 ± 0.013 | 1.976 ± 0.004 | 0.342 ± 0.096 | 2.01 ± 0.034
16 | AUAUGG | 0.12 ± 0.066 | 1.867 ± 0.0088 | 0.307 ± 0.19 | 2 ± 0.034
17 | AUAUGU | 0.367 ± 0.12 | 1.9129 ± 0.00064 | 0.417 ± 0.46 | 2.0205 ± 0.0011
18 | AGUGGA | 0.399 ± 0.14 | 1.963 ± 0.018 | 0.327 ± 0.082 | 2.015 ± 0.0071
19 | GUACGG | 0.245 ± 0.024 | 1.953 ± 0.0076 | 0.584 ± 0.19 | 2.03 ± 0.032
20 | GUACGA | 0.269 ± 0.031 | 2.0027 ± 0.0013 | 0.139 ± 0.31 | 2.04 ± 0.051
21 | UUAUUG | 0.469 ± 0.069 | 1.82 ± 0.035 | 0.551 ± 0.16 | 1.97 ± 0.038
22 | UUAUUU | 0.415 ± 0.024 | 1.982 ± 0.0056 | 0.569 ± 0.26 | 2 ± 0.022
23 | CGUUGC | 0.557 ± 0.049 | 2.02 ± 0.025 | 0.358 ± 0.33 | 2.02 ± 0.047
24 | GGUUGC | 0.472 ± 0.12 | 1.932 ± 0.0076 | 0.388 ± 0.059 | 1.9808 ± 0.0018

Row | Variant | FACS-Seq fitted mean (log10) ((6R,S)-folinic acid [1]) | normalized RNA/DNA level without ligand (log10) ((6R,S)-folinic acid [2]) | FACS-Seq fitted mean (log10) ((6R,S)-folinic acid [3]) | normalized RNA/DNA level with ligand (log10) ((6R,S)-folinic acid [4])
25 | GGUUGA | 0.168 ± 0.043 | 2.083 ± 0.0081 | -0.309 ± 0.06 | 2.07 ± 0.031
26 | GUACUU | 0.484 ± 0.059 | 2.034 ± 0.015 | 0.386 ± 0.2 | 2.04 ± 0.06
27 | GUACUC | 0.541 ± 0.13 | 2.051 ± 0.016 | 0.366 ± 0.17 | 2.041 ± 0.013
28 | GUACUA | 0.314 ± 0.17 | 2.046 ± 0.0037 | 0.428 ± 0.14 | 2.04 ± 0.026
29 | UUAGCA | -0.108 ± 0.12 | 1.9803 ± 0.0011 | -0.232 ± 0.1 | 2.0126 ± 0.00039
30 | UGUGAG | 0.269 ± 0.082 | 1.6 ± 0.0064 | 0.649 ± 0.03 | 1.906 ± 0.0071
31 | UGUGAA | 0.186 ± 0.034 | 1.899 ± 0.015 | 0.243 ± 0.25 | 1.984 ± 0.012
32 | UGUGUG | 0.164 ± 0.26 | 1.591 ± 0.003 | 0.393 ± 0.24 | 1.94 ± 0.062
33 | UGUGUA | 0.429 ± 0.1 | 1.895 ± 0.0065 | 0.399 ± 0.015 | 2.01 ± 0.021
34 | AUACAU | 0.534 ± 0.18 | 1.96 ± 0.022 | 0.452 ± 0.056 | 2.017 ± 0.02
35 | AUACAA | 0.428 ± 0.07 | 1.974 ± 0.0047 | 0.215 ± 0.014 | 1.99 ± 0.035
36 | AUACAG | 0.453 ± 0.1 | 1.9374 ± 0.0012 | 0.394 ± 0.44 | 2 ± 0.028
37 | AUAGCG | 0.172 ± 0.0027 | 1.664 ± 0.015 | 0.461 ± 0.046 | 1.96 ± 0.045
38 | AUAGCC | 0.385 ± 0.019 | 2.036 ± 0.0053 | 0.591 ± 0.43 | 2.03 ± 0.051
39 | AUAGCA | 0.356 ± 0.058 | 1.9776 ± 0.00078 | 0.516 ± 0.016 | 2.03 ± 0.028
40 | UGUGCG | 0.0533 ± 0.02 | 1.657 ± 0.011 | 0.442 ± 0.14 | 1.96 ± 0.05
41 | UGUGCU | 0.259 ± 0.17 | 2.024 ± 0.011 | 0.414 ± 0.076 | 2.07 ± 0.03
42 | CGUUAA | 0.362 ± 0.031 | 1.97 ± 0.016 | 0.486 ± 0.18 | 1.98 ± 0.025
43 | AUAGUG | 0.15 ± 0.12 | 1.59 ± 0.023 | 0.795 ± 0.071 | 1.93 ± 0.024
44 | AUAGUA | 0.293 ± 0.042 | 1.93 ± 0.027 | 0.273 ± 0.21 | 1.97 ± 0.019
45 | AGUCGU | 0.209 ± 0.14 | 1.979 ± 0.013 | -0.0314 ± 0.084 | 2.03 ± 0.029
46 | AGUCGA | 0.3437 ± 0.0018 | 1.974 ± 0.012 | 0.506 ± 0.09 | 2.021 ± 0.0067
47 | GUAGUG | 0.359 ± 0.012 | 1.856 ± 0.0051 | 0.637 ± 0.19 | 1.99 ± 0.054
48 | AUAACA | 0.394 ± 0.16 | 2 ± 0.017 | 0.263 ± 0.35 | 1.98 ± 0.033

Row | Variant | FACS-Seq fitted mean (log10) ((6R,S)-folinic acid [1]) | normalized RNA/DNA level without ligand (log10) ((6R,S)-folinic acid [2]) | FACS-Seq fitted mean (log10) ((6R,S)-folinic acid [3]) | normalized RNA/DNA level with ligand (log10) ((6R,S)-folinic acid [4])
49 | AUAACU | -0.545 ± 0.34 | 2.009 ± 0.007 | -0.619 ± 0.76 | 2.02 ± 0.038
50 | AUAACC | -0.122 ± 0.045 | 2.011 ± 0.015 | -0.194 ± 0.26 | 2 ± 0.034
51 | CUAUAG | 0.0808 ± 0.1 | 1.915 ± 0.017 | 0.35 ± 0.15 | 2 ± 0.029
52 | AUACUC | 0.248 ± 0.028 | 2.049 ± 0.0056 | 0.188 ± 0.18 | 2.03 ± 0.037
53 | GGUUUG | 0.0685 ± 0.084 | 2.024 ± 0.0089 | -0.1121 ± 0.00036 | 2.06 ± 0.025
54 | UUACGU | 0.339 ± 0.078 | 1.97 ± 0.0066 | 0.15 ± 0.074 | 2.01 ± 0.044
55 | AUAUAU | 0.272 ± 0.026 | 1.947 ± 0.011 | 0.459 ± 0.073 | 1.99 ± 0.02
56 | AUAUAC | 0.205 ± 0.083 | 1.994 ± 0.015 | 0.279 ± 0.065 | 2 ± 0.041
57 | AUAUAG | 0.309 ± 0.028 | 1.91 ± 0.021 | 0.295 ± 0.25 | 2 ± 0.022
58 | AGUGAU | 0.213 ± 0.04 | 1.972 ± 0.016 | 0.178 ± 0.14 | 1.996 ± 0.0024
59 | CUAUGU | 0.286 ± 0.071 | 2.01 ± 0.023 | 0.152 ± 0.23 | 2.023 ± 0.014
60 | AUAGAU | 0.365 ± 0.1 | 1.925 ± 0.011 | 0.406 ± 0.1 | 2 ± 0.054
61 | AUAGAC | 0.4594 ± 0.0035 | 1.968 ± 0.0041 | 0.536 ± 0.13 | 1.98 ± 0.017
62 | AUAGAG | 0.0276 ± 0.0023 | 1.52 ± 0.0028 | 0.431 ± 0.14 | 1.89 ± 0.034
63 | AUAUCC | 0.455 ± 0.027 | 2.0352 ± 0.00073 | 0.839 ± 0.019 | 2.03 ± 0.039
64 | UUCAAA | 0.198 ± 0.18 | 1.972 ± 0.0074 | 0.0558 ± 0.029 | 2.009 ± 0.019
65 | CGUGGA | 0.378 ± 0.16 | 1.988 ± 0.014 | 0.668 ± 0.33 | 2.02 ± 0.043
66 | UGUUCC | 0.382 ± 0.066 | 2.05 ± 0.023 | 0.146 ± 0.006 | 2.05 ± 0.062
67 | GUAUGC | 0.271 ± 0.067 | 1.891 ± 0.015 | 0.404 ± 0.15 | 2 ± 0.03
68 | AUACGG | 0.263 ± 0.033 | 1.919 ± 0.0086 | 0.367 ± 0.16 | 1.98 ± 0.02
69 | UUAGAA | 0.323 ± 0.038 | 1.913 ± 0.0022 | 0.278 ± 0.054 | 1.98 ± 0.038
70 | UUAGAG | 0.029 ± 0.12 | 1.7074 ± 0.0017 | 0.476 ± 0.11 | 1.95 ± 0.045
71 | AUAUUG | 0.176 ± 0.067 | 1.896 ± 0.0041 | 0.136 ± 0.13 | 1.97 ± 0.011
